Values joined by “and” are separate entries in the source; they are usually repeats but may differ in a detail not shown here. Equal values may be shown once.
Target: T1, IFNα receptor 2 (IFNAR2) on THP-1 cells (human) (UniProt P48551)
T1 sequence (looked up): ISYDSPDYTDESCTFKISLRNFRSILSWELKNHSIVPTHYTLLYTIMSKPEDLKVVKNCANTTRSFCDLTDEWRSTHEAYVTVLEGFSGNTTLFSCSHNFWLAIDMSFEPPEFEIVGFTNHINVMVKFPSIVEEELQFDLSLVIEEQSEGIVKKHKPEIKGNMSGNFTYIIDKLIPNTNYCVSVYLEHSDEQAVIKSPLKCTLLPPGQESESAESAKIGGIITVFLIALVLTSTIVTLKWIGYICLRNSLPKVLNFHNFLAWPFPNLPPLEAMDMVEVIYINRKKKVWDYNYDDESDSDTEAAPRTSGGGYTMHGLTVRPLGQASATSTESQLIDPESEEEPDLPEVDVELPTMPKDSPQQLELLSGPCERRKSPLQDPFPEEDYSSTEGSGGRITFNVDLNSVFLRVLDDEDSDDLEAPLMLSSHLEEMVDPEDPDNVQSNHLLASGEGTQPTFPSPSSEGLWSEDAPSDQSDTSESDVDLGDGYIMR
Test: cell-based or functional assay

Row | Substance | pSTAT1 % (PEGASYS fixed as 100%) | pSTAT1 EC50 (pM)
1 | 6His G37pAF-30K PEG (from UniProt P01563 24-188) (ligand) | 40.3% | 193 pM
2 | 6His E41pAF (from UniProt P01563 24-188) (ligand) | 3.97% | 19 pM
3 | 6His E107pAF-30K PEG (from UniProt P01563 24-188) (ligand) | 22.3% and 7.27% | 
4 | 6His L110pAF-30K PEG (from UniProt P01563 24-188) (ligand) | 27.8% | 133 pM
5 | 6His K31pAF-30K PEG (from UniProt P01563 24-188) (ligand) | 62.5% | 
6 | 6His E113pAF-30K PEG (from UniProt P01563 24-188) (ligand) | 54.7% | 262 pM
7 | PEGASYS® (Peginterferon alfa-2a) (from UniProt P01563 24-188) (ligand) | 100% | 479 pM
8 | 6His K134pAF-30K PEG (from UniProt P01563 24-188) (ligand) | 22.5% | 
9 | 6His R12pAF-30K PEG (from UniProt P01563 24-188) (ligand) | 138% | 660 pM
10 | 6His K31pAF (from UniProt P01563 24-188) (ligand) | 10.2% | 
11 | 6His N65pAF-30K PEG (from UniProt P01563 24-188) (ligand) | > 532% | > 2860 pM
12 | 6His P39pAF-30K PEG (from UniProt P01563 24-188) (ligand) | 52.9% | 253 pM
13 | 6His F38S (from UniProt P01563 24-188) (ligand) | 3.76% | 
14 | 6His R125pAF-30K PEG (from UniProt P01563 24-188) (ligand) | 47% | 225 pM
15 | 6HisC1G/C98 IFNα-2a + limitin loop (from UniProt P01563 25-188) (ligand) | 6.27% and 7.27% | 30 pM and 34.8 pM
16 | 6His L117pAF-30K PEG (from UniProt P01563 24-188) (ligand) | 50.6% | 242 pM
17 | 6His E41pAF-30K PEG (from UniProt P01563 24-188) (ligand) | 25.2% | 120 pM

More lines, now with the values ahead:

Row | pSTAT1 % (PEGASYS fixed as 100%) | pSTAT1 EC50 (pM) | Substance
18 | 4.55% | 21.8 pM | 6His G37pAF (from UniProt P01563 24-188) (ligand)
19 | 18.2% |  | 6His N45pAF-30K PEG (from UniProt P01563 24-188) (ligand)
20 | 6.43% | 30.8 pM | 6His E107pAF (from UniProt P01563 24-188) (ligand)
21 | 25% |  | 6His H34pAF (from UniProt P01563 24-188) (ligand)
22 | 28.4% |  | 6His T106pAF-30K PEG (from UniProt P01563 24-188) (ligand)
23 | 33.6% | 161 pM | 6His H34pAF-30K PEG (from UniProt P01563 24-188) (ligand)
24 | 2.72% | 13 pM | 6His F38L (from UniProt P01563 24-188) (ligand)
25 | 66% | 316 pM | 6His F27pAF-30K PEG (from UniProt P01563 24-188) (ligand)
